Test results reported in patent US20230295336A1 (INHIBRX, published 2023).

Tests used:
[1] = target: T1, CD3 on the surface of primary T cells (human, UniProt P07766 23-207); test: flow cytometry on isolated T cells
T1 construct: whole, on cells; CD3 is a multimeric complex (ε, γ, δ, ζ chains) with the TCR; In the reporter assays CD3 stood on Jurkat cells; also called CD3ε
Method: (§1) Binding of exemplary multispecific constructs containing an antigen-binding domain directed against B7H3 were assessed for binding to B7H3 positive A375 tumor cells or primary T-cells. The constructs were generated containing antigen-binding domain(s) that were either sdAbs or a FABs, and that were positioned either only N-terminal to the Fc or both N-terminal to the Fc and C-terminal to the anti-CD3 binding domain (see FIGS. 3A and 3C and Table E1.1). Among the various formats of constructs tested included: sdAb-Fc-dsFV-sdAb (cx3072, cx5952) sdAb-Fc-FV (cx6079), sdAb-Fc-dsFV (cs6080, cx6081), MAB-FV (cx5067) and MAB-dsFV (cx6083, cx6084), where the FV represents the anti-CD3 binding domain composed of VH and VL domain pairs and “ds” notes disulfide stabilized via an engineered interdomain disulfide bond.
(§2) Binding was assessed as described above via flow cytometry using a fluorophore-conjugated anti-human Fc secondary antibody. cx3072 bound to A375 cells with high affinity (FIG. 6A) but not to isolated T-cells (FIG. 6B). […]

B7H3 (CD276) = target: T2, B7H3 (CD276) (human, UniProt Q5ZPR3 29-534); test: flow cytometry on A375 cells
T2 construct: whole, on cells
T2 sequence (looked up): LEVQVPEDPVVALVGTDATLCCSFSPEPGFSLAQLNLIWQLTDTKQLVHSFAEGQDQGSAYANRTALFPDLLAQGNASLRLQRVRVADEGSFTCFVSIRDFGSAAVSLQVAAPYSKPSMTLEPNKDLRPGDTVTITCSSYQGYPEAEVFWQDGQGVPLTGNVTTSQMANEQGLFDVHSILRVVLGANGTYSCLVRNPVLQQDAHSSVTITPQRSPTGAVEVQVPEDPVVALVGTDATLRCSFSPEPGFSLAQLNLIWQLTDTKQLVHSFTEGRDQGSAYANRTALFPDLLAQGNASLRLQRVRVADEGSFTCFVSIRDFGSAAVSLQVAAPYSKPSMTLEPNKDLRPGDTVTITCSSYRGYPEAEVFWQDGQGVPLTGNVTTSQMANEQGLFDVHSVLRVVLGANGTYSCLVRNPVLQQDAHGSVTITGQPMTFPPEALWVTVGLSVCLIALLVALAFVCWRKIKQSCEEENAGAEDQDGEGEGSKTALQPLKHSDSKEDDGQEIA
Method: as §1, §2

T1 sequence (P07766 23-207): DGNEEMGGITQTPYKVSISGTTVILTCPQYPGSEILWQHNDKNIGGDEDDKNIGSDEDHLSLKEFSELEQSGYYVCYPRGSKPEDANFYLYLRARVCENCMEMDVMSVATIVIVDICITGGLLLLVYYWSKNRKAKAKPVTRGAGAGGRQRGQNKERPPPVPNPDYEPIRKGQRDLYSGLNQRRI

B1: cx5952 (bispecific antibody)
chain 1: EVQLVESGGGEVQPGGSLRLSCAASGFSFSSNVMMWVRQAPGKGLEWVSTIYSSGTGTFYAESVKGRFTISRDNAKNTLYLQMSSLRPEDTAVYYCATSGPVRGWGPRSQGTLVTVKPPGGGGDKTHTCPPCPAPGGPSVFLFPPKPKDTLMISRTPEVTCVVVDVSHEDPEVKFNWYVDGVEVHNAKTKPREEQYNSTYRVVSVLTVLHQDWLNGKEYKCKVSNKALPAPIEKTISKAKGQPREPQVYTLPPCRDELTKNQVSLWCLVKGFYPSDIAVEWESNGQPENNYKTTPPVLDSDGSFFLYSKLTVDKSRWQQGNVFSCSVMHEALHNHYTQKSLSLSPGGGGGGSGGGGGSGGGGGSEVQLVESGGGLVQPGGSLRLSCAASGFTFNTYAMNWVRQAPGKCLEWVARIRSKYNNYATYYADSVKGRFTISRDDAKNTLYLQMSSLRAEDTAVYYCVRHGNFGNSYVSWFAYWGQGTLVTVKPGGGGEVQLVESGGGEVQPGGSLRLSCAASGFTFSSYHMSWFRQAPGKQRELVATSHHGGTTNYAGSVKGRFTISRDNAKNTVYLQMNTLRAEDTAVYYCKADHGYQGRGYWGQGTLVTVKP
chain 2: DKTHTCPPCPAPGGPSVFLFPPKPKDTLMISRTPEVTCVVVDVSHEDPEVKFNWYVDGVEVHNAKTKPREEQYNSTYRVVSVLTVLHQDWLNGKEYKCKVSNKALPAPIEKTISKAKGQPREPQVCTLPPSRDELTKNQVSLSCAVKGFYPSDIAVEWESNGQPENNYKTTPPVLDSDGSFFLVSKLTVDKSRWQQGNVFSCSVMHEALHNRYTQKSLSLSPGGGGGGSGGGGGSGGGGGSQAVVTQEPSLTVSPGGTVTLTCGSSTGAVTTSNYANWVQQKPGQAFRGLIGGTNKRAPGVPARFSGSLLGGKAALTISGAQPEDEADYYCALWYSNHWVFGCGTKLEIK
notes: Heterodimer of chain 1 and chain 2; anti-CD3 Fv disulfide-stabilized (VH G44C / VL G100C); also called B7H3-targeting constrained CD3 engaging construct; sdAb-Fc-dsFV-sdAb
[1]
  binding result: no binding

B2: cx6079 (bispecific antibody)
chain 1: EVQLVESGGGEVQPGGSLRLSCAASGFSFSSNVMMWVRQAPGKGLEWVSTIYSSGTGTFYAESVKGRFTISRDNAKNTLYLQMSSLRPEDTAVYYCATSGPVRGWGPRSQGTLVTVKPPGGGGDKTHTCPPCPAPPVAGPSVFLFPPKPKDTLMISRTPEVTCVVVDVKHEDPEVKFNWYVDGVEVHNAKTKPREEEYNSTYRVVSVLTVLHQDWLNGKEYKCKVSNKALPAPIEKTISKAKGQPREPQVYTLPPSREEMTKNQVSLTCDVSGFYPSDIAVEWESDGQPENNYKTTPPVLDSDGSFFLYSKLTVDKSRWEQGDVFSCSVMHEALHNHYTQKSLSLSPGKGGGGSGGGGSGGGGSEVQLVESGGGLVQPGGSLRLSCAASGFTFSTYAMNWVRQAPGKGLEWVGRIRSKYNNYATYYADSVKGRFTISRDDSKNTLYLQMNSLRAEDTAVYYCVRHGNFGDSYVSWFAYWGQGTLVTVSS
chain 2: EVQLVESGGGEVQPGGSLRLSCAASGFSFSSNVMMWVRQAPGKGLEWVSTIYSSGTGTFYAESVKGRFTISRDNAKNTLYLQMSSLRPEDTAVYYCATSGPVRGWGPRSQGTLVTVKPPGGGGDKTHTCPPCPAPPVAGPSVFLFPPKPKDTLMISRTPEVTCVVVDVKHEDPEVKFNWYVDGVEVHNAKTKPREEQYNSTYRVVSVLTVLHQDWLNGKEYKCKVSNKALPAPIEKTISKAKGQPREPQVYTLPPSREQMTKNQVKLTCLVKGFYPSDIAVEWESNGQPENNYKTTPPVLDSDGSFFLYSKLTVDKSRWQQGNVFSCSVMHEALHNHYTQKSLSLSPGKGGGGSGGGGSGGGGSQAVVTQEPSLTVSPGGTVTLTCGSSTGAVTTSNYANWVQQKPGKSPRGLIGGTNKRAPGVPARFSGSLLGGKAALTISGAQPEDEADYYCALWYSNHWVFGGGTKLTVL
notes: Heterodimer of chain 1 and chain 2; anti-CD3 Fv not disulfide-stabilized; two identical B7H3 sdAbs, both N-terminal to the Fc; also called B7H3-targeting constrained CD3 engaging construct; sdAb-Fc-FV
B7H3 (CD276)
  binding result: binds
[1]
  binding result: no binding
